Measured values published in patent US20220040297A1 (Chugai, published 2022).

B1: CE115HA000 A102P one-arm antibody (antibody, human IgG1, kappa, L234A L235A, N297A, name in Kabat numbering)
heavy: QVQLVESGGGVVQPGRSLRLSCAASGFTFSNAWMHWVRQAPGKGLEWVAQIKAKSNNYATYYAESVKGRFTISRDDSKNSLYLQMNSLKTEDTAVYYCRYVHYGAYYGVDPWGQGTTVTVSSASTKGPSVFPLAPSSKSTSGGTAALGCLVKDYFPEPVTVSWNSGALTSGVHTFPAVLQSSGLYSLSSVVTVPSSSLGTQTYICNVNHKPSNTKVDKKVEPKSCDKTHTCPPCPAPEAAGGPSVFLFPPKPKDTLMISRTPEVTCVVVDVSHEDPEVKFNWYVDGVEVHNAKTKPREEQYASTYRVVSVLTVLHQDWLNGKEYKCKVSNKALPAPIEKTISKAKGQPREPQVYTLPPSRCELTKNQVSLSCAVKGFYPSDIAVEWESNGQPENNYKTTPPVLDSDGSFFLVSKLTVDKSRWQQGNVFSCSVMHEALHNHYTQKSLSLSPDYKDDDDK
chain: EPKSSDKTHTCPPCPAPELLGGPSVFLFPPKPKDTLMISRTPEVTCVVVDVSHEDPEVKFNWYVDGVEVHNAKTKPREEQYNSTYRVVSVLTVLHQDWLNGKEYKCKVSNKALPAPIEKTISKAKGQPREPQVCTLPPSRDELTKNQVSLWCLVKGFYPSDIAVEWESNGQPENNYKTTPPVLDSDGSFFLYSKLTVDKSRWQQGNVFSCSVMHEALHNRYTQKSLSLSP
light: DIVMTQSPLSLPVTPGEPASISCRSSQSLVHSNRNTYLHWYQQKPGQAPRLLIYKVSNRFSGVPDRFSGSGSGTDFTLKISRVEAEDVGVYYCGQGTQVPYTFGQGTKLEIKRTVAAPSVFIFPPSDEQLKSGTASVVCLLNNFYPREAKVQWKVDNALQSGNSQESVTEQDSKDSTYSLSSTLTLSKADYEKHKVYACEVTHQGLSSPVTKSFNRGEC
B2: CE115HA000 D101R one-arm antibody (antibody, human IgG1, kappa, L234A L235A, N297A, name in Kabat numbering)
heavy: QVQLVESGGGVVQPGRSLRLSCAASGFTFSNAWMHWVRQAPGKGLEWVAQIKAKSNNYATYYAESVKGRFTISRDDSKNSLYLQMNSLKTEDTAVYYCRYVHYGAYYGVRAWGQGTTVTVSSASTKGPSVFPLAPSSKSTSGGTAALGCLVKDYFPEPVTVSWNSGALTSGVHTFPAVLQSSGLYSLSSVVTVPSSSLGTQTYICNVNHKPSNTKVDKKVEPKSCDKTHTCPPCPAPEAAGGPSVFLFPPKPKDTLMISRTPEVTCVVVDVSHEDPEVKFNWYVDGVEVHNAKTKPREEQYASTYRVVSVLTVLHQDWLNGKEYKCKVSNKALPAPIEKTISKAKGQPREPQVYTLPPSRCELTKNQVSLSCAVKGFYPSDIAVEWESNGQPENNYKTTPPVLDSDGSFFLVSKLTVDKSRWQQGNVFSCSVMHEALHNHYTQKSLSLSPDYKDDDDK
chain: EPKSSDKTHTCPPCPAPELLGGPSVFLFPPKPKDTLMISRTPEVTCVVVDVSHEDPEVKFNWYVDGVEVHNAKTKPREEQYNSTYRVVSVLTVLHQDWLNGKEYKCKVSNKALPAPIEKTISKAKGQPREPQVCTLPPSRDELTKNQVSLWCLVKGFYPSDIAVEWESNGQPENNYKTTPPVLDSDGSFFLYSKLTVDKSRWQQGNVFSCSVMHEALHNRYTQKSLSLSP
light: DIVMTQSPLSLPVTPGEPASISCRSSQSLVHSNRNTYLHWYQQKPGQAPRLLIYKVSNRFSGVPDRFSGSGSGTDFTLKISRVEAEDVGVYYCGQGTQVPYTFGQGTKLEIKRTVAAPSVFIFPPSDEQLKSGTASVVCLLNNFYPREAKVQWKVDNALQSGNSQESVTEQDSKDSTYSLSSTLTLSKADYEKHKVYACEVTHQGLSSPVTKSFNRGEC
B3: CE115HA000 E61Q one-arm antibody (antibody, human IgG1, kappa, L234A L235A, N297A, name in Kabat numbering)
heavy: QVQLVESGGGVVQPGRSLRLSCAASGFTFSNAWMHWVRQAPGKGLEWVAQIKAKSNNYATYYAQSVKGRFTISRDDSKNSLYLQMNSLKTEDTAVYYCRYVHYGAYYGVDAWGQGTTVTVSSASTKGPSVFPLAPSSKSTSGGTAALGCLVKDYFPEPVTVSWNSGALTSGVHTFPAVLQSSGLYSLSSVVTVPSSSLGTQTYICNVNHKPSNTKVDKKVEPKSCDKTHTCPPCPAPEAAGGPSVFLFPPKPKDTLMISRTPEVTCVVVDVSHEDPEVKFNWYVDGVEVHNAKTKPREEQYASTYRVVSVLTVLHQDWLNGKEYKCKVSNKALPAPIEKTISKAKGQPREPQVYTLPPSRCELTKNQVSLSCAVKGFYPSDIAVEWESNGQPENNYKTTPPVLDSDGSFFLVSKLTVDKSRWQQGNVFSCSVMHEALHNHYTQKSLSLSPDYKDDDDK
chain: EPKSSDKTHTCPPCPAPELLGGPSVFLFPPKPKDTLMISRTPEVTCVVVDVSHEDPEVKFNWYVDGVEVHNAKTKPREEQYNSTYRVVSVLTVLHQDWLNGKEYKCKVSNKALPAPIEKTISKAKGQPREPQVCTLPPSRDELTKNQVSLWCLVKGFYPSDIAVEWESNGQPENNYKTTPPVLDSDGSFFLYSKLTVDKSRWQQGNVFSCSVMHEALHNRYTQKSLSLSP
light: DIVMTQSPLSLPVTPGEPASISCRSSQSLVHSNRNTYLHWYQQKPGQAPRLLIYKVSNRFSGVPDRFSGSGSGTDFTLKISRVEAEDVGVYYCGQGTQVPYTFGQGTKLEIKRTVAAPSVFIFPPSDEQLKSGTASVVCLLNNFYPREAKVQWKVDNALQSGNSQESVTEQDSKDSTYSLSSTLTLSKADYEKHKVYACEVTHQGLSSPVTKSFNRGEC
B4: CE115HA000 G98D one-arm antibody (antibody, human IgG1, kappa, L234A L235A, N297A, name in Kabat numbering)
heavy: QVQLVESGGGVVQPGRSLRLSCAASGFTFSNAWMHWVRQAPGKGLEWVAQIKAKSNNYATYYAESVKGRFTISRDDSKNSLYLQMNSLKTEDTAVYYCRYVHYDAYYGVDAWGQGTTVTVSSASTKGPSVFPLAPSSKSTSGGTAALGCLVKDYFPEPVTVSWNSGALTSGVHTFPAVLQSSGLYSLSSVVTVPSSSLGTQTYICNVNHKPSNTKVDKKVEPKSCDKTHTCPPCPAPEAAGGPSVFLFPPKPKDTLMISRTPEVTCVVVDVSHEDPEVKFNWYVDGVEVHNAKTKPREEQYASTYRVVSVLTVLHQDWLNGKEYKCKVSNKALPAPIEKTISKAKGQPREPQVYTLPPSRCELTKNQVSLSCAVKGFYPSDIAVEWESNGQPENNYKTTPPVLDSDGSFFLVSKLTVDKSRWQQGNVFSCSVMHEALHNHYTQKSLSLSPDYKDDDDK
chain: EPKSSDKTHTCPPCPAPELLGGPSVFLFPPKPKDTLMISRTPEVTCVVVDVSHEDPEVKFNWYVDGVEVHNAKTKPREEQYNSTYRVVSVLTVLHQDWLNGKEYKCKVSNKALPAPIEKTISKAKGQPREPQVCTLPPSRDELTKNQVSLWCLVKGFYPSDIAVEWESNGQPENNYKTTPPVLDSDGSFFLYSKLTVDKSRWQQGNVFSCSVMHEALHNRYTQKSLSLSP
light: DIVMTQSPLSLPVTPGEPASISCRSSQSLVHSNRNTYLHWYQQKPGQAPRLLIYKVSNRFSGVPDRFSGSGSGTDFTLKISRVEAEDVGVYYCGQGTQVPYTFGQGTKLEIKRTVAAPSVFIFPPSDEQLKSGTASVVCLLNNFYPREAKVQWKVDNALQSGNSQESVTEQDSKDSTYSLSSTLTLSKADYEKHKVYACEVTHQGLSSPVTKSFNRGEC

Target: CD3ε homodimer protein (human, UniProt P07766 23-126, limits assumed)
Assay: SPR Biacore T200, CD3e homodimer on CM4 chip, antibody as analyte, 25 C
Method: An appropriate amount of CD3ε homodimer protein was immobilized onto Sensor chip CM4 (GE Healthcare Japan Corp.) by the amine coupling method. Then, the antibody having an appropriate concentration was injected thereto as an analyte and allowed to interact with the CD3ε homodimer protein on the sensor chip. Then, the sensor chip was regenerated by the injection of 10 mmol/L glycine-HCl (pH 1.5). The assay was conducted at 25° C., and HBS-EP+ (GE Healthcare Japan Corp.) was used as a running buffer. […] Each parameter was calculated using Biacore T200 Evaluation Software (GE Healthcare Japan Corp.).
Specifically, when the amount of the antibody comprising CE115HA000 bound was defined as X and the amount of the H chain one-amino acid altered form bound was defined as Y, a value of Z (ratio of amounts bound)=Y/X was used.

CD3ε homodimer protein, sequence (P07766 23-126 limits assumed): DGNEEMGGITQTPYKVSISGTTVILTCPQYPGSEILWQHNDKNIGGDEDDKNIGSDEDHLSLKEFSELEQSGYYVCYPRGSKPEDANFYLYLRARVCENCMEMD

Row | Binder | KD ratio (KD of CE115HA000/KD of altered form)
1 | B1 | 3.61
2 | B2 | 5.66
3 | B3 | 0.85
4 | B4 | 2.35
